Test results published in paper PMC3340929.

Target: NFS1–ISD11–ISCU2 protein complex (SDU) (human) (UniProt Q9HD34)
Experiment: enzyme activity titration

Kd [µM]	Substance
1.35	FXN N146A variant (from UniProt Q16595 82-210) (natural protein)
6.25	FXN N146K variant (FRDA missense mutation) (from UniProt Q16595 82-210) (natural protein)
2.17	FXN Q148G variant (from UniProt Q16595 82-210) (natural protein)
0.85	FXN Q148R variant (FRDA missense mutation) (from UniProt Q16595 82-210) (natural protein)
7.5	FXN Q153A variant (from UniProt Q16595 82-210) (natural protein)
10.4	FXN R165C variant (FRDA missense mutation) (from UniProt Q16595 82-210) (natural protein)
